Reference: paper PMC5861432

T1: IRF3(6D) (human, UniProt Q14653 1-427, S386D;S396D;S398D;S402D;T404D;S405D)
T1 sequence: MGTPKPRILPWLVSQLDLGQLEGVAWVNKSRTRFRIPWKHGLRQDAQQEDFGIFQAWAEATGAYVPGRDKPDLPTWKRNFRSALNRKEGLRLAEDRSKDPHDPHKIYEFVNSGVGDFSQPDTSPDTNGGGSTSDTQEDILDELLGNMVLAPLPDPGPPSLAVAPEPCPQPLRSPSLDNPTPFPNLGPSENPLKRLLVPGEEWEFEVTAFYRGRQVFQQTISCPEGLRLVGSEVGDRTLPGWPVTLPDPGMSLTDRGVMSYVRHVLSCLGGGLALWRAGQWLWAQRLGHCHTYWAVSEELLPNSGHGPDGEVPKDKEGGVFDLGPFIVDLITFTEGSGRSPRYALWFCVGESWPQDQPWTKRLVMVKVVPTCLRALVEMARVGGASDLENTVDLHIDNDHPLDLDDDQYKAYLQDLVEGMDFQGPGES


Tests used:
IRF3(6D) [1] = molecular target: T1, IRF3(6D); test: PBM
IRF5(4D) = IRF5(4D) (human, UniProt Q13568-2 1-514, S451D;S453D;S456D;S462D); test: PBM
IRF3(6D) [2] = molecular target: T1, IRF3(6D); test: EMSA

Binder | binding result (IRF3(6D) [1]) | binding result (IRF5(4D)) | binding result (IRF3(6D) [2])
C-2 PBM probe (dsDNA) DNA 1: GCCTAGCACTAACCGAAACCGAAACCTAAGTGCTAGGTCTTGATTCGCTTGACGCTGCTG DNA 2: CAGCAGCGTCAAGCGAATCAAGACCTAGCACTTAGGTTTCGGTTTCGGTTAGTGCTAGGC | binds | binds | 
proximal dimer (2-bp spacer) (dsDNA) DNA 1: GCACCGCTAACCGAAACCGAAACTGTGC DNA 2: GCACAGTTTCGGTTTCGGTTAGCGGTGC |  |  | binds
